In publication PMC7337902:

Target: HRP2 (hepatoma-derived growth factor-related protein 2) IBD (UniProt Q7Z4V5)
Assay: biotin-peptide streptavidin pull-down, GST blot
Conditions: reference: unphosphorylated IBM peptide; sites S323

Sequence of UniProt Q7Z4V5 (Q7Z4V5 whole entry, looked up): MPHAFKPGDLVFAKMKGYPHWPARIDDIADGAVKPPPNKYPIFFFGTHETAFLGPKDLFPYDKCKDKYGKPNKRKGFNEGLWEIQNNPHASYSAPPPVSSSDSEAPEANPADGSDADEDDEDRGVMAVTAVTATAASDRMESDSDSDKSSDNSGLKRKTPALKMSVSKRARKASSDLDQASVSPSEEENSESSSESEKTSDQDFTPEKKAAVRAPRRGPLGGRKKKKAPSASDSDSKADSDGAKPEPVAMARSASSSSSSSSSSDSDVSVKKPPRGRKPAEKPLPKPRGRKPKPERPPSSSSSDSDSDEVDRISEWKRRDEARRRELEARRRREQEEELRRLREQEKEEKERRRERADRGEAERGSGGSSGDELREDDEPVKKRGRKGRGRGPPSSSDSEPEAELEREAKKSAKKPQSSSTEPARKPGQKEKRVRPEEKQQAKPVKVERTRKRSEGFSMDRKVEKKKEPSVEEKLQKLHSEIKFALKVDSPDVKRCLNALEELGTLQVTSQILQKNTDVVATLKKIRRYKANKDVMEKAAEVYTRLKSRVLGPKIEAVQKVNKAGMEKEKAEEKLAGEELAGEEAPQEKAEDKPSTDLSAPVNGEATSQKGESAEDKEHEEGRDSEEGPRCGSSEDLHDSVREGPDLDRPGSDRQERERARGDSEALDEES

DPF3a (BAF45c) IBM peptide (from UniProt Q92784-2) pS323 IBM peptide
binding against the reference: stronger
